Assay [1] addresses T1, FLAG-γ1-COP (N-terminal FLAG-tagged human γ1-COP) (human, UniProt Q9Y678 1-874).
T1 sequence (looked up): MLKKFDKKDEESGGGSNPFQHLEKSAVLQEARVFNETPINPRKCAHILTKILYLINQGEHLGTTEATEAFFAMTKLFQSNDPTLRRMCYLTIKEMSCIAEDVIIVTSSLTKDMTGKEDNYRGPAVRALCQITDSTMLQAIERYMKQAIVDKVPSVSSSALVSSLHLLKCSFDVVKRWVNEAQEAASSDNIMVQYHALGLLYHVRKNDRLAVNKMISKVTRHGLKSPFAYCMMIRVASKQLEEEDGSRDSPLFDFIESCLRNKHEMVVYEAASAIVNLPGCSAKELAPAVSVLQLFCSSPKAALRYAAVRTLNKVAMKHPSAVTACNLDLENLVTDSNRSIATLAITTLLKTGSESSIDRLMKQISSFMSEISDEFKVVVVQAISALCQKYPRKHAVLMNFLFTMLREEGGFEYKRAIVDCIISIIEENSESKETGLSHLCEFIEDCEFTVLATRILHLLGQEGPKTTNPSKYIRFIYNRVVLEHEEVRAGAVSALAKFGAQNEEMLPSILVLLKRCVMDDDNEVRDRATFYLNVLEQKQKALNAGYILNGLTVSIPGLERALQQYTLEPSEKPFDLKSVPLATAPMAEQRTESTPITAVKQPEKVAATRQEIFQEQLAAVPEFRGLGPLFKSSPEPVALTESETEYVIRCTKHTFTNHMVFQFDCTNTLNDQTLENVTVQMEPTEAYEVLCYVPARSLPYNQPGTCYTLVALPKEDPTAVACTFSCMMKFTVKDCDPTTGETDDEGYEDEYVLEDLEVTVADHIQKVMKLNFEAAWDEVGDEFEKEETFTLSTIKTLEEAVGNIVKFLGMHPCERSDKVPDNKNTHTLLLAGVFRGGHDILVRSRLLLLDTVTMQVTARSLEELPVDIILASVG
Nature of the assay: co-IP.

For assay [2], the target named is T1, FLAG-γ1-COP (N-terminal FLAG-tagged …). Kind of assay: pull-down.

Ends that are not written are not given here. * marks the point of attachment. Biotin = O=C1N[C@H]2[C@H](CS[C@H]2CCCCC(=O)*)N1

B1: HA-(Δ1–67) L2-3xFLAG (domain or fragment, HPV16, UniProt P03107 68-473, looked up)
chain: GRTGYIPLGTRPPTATDTLAPVRPPLTVDPVGPSDPSIVSLVEETSFIDAGAPTSVPSIPPDVSGFSITTSTDTTPAILDINNTVTTVTTHNNPTFTDPSVLQPPTPAETGGHFTLSSSTISTHNYEEIPMDTFIVSTNPNTVTSSTPIPGSRPVARLGLYSRTTQQVKVVDPAFVTTPTKLITYDNPAYEGIDVDNTLYFSSNDNSINIAPDPDFLDIVALHRPALTSRRTGIRYSRIGNKQTLRTRSGKSIGAKVHYYYDLSTIDPAEEIELQTITPSTYTTTSHAASPTSINNGLYDIYADDFITDTSTTPVPSVPSTSLSGYIPANTTIPFGGAYNIPLVSGPDIPINITDQAPSLIPIVPGSPQYTIIADAGDFYLHPSYYMLRKRRKRLPYFFSDVSLAA
Consider B1, for which the binding result in assay [1] was “binds”.

B2: biotin-tagged WT HPV16 L2 peptide (residues T299 to L312) (peptide)
peptide: Biotin-TGIRYSRIGNKQTL
With B2, in assay [2], the binding result was “binds”.

The record behind these values is PMC9858521 (Science Advances, 2023).
